The chains are these.
B1: TARP-2-9 (peptide)
peptide: QMFPPSPL
notes: The limits should be checked against the listing
B2: TARP-27-35 with substitution with Ala at position 3 (peptide)
peptide: FVALRNFSL
B3: TARP-22-30 (peptide)
peptide: RLEHTFVFL
B4: TARP-29-37 (peptide)
peptide: FLRNFSLML
notes: also called wild-type peptide
B5: TARP-29-37-9V (peptide)
peptide: FLRNFSLMV
B6: TARP-29-37-3A (peptide)
peptide: FLANFSLML
B7: TARP-27-35-9V (peptide)
peptide: FVFLRNFSV
B8: TARP-27-35-2L (peptide)
peptide: FLFLRNFSL
B9: TARP-27-35 (peptide)
peptide: FVFLRNFSL

One assay deals with T1, HLA-A2.1 molecules on TAP-deficient T2 cells (human).
T1 construct: MHC class I molecule on T2 cells; also called HLA-A2 molecules
Put plainly: T2 binding assay, flow cytometry with anti-HLA-A2.1. On the technique in general: Flow cytometry measures light scatter and fluorescence of single cells or particles in a stream.
Experimental: (§1) T2-binding assay. […] After washing, cells were stained with FITC-labeled goat anti-mouse Ig (PharMingen, San Diego, Calif.) and the level of HLA-A2.1 expression was measured by flow cytometry. HLA-A2.1 expression was quantified as fluorescence index (FI) according to the formula: FI=(mean fluorescence intensity with peptide-mean fluorescence intensity without peptide)/mean fluorescence intensity without peptide.
(§2) To determine HLA-A2.1 epitopes from the TARP, four different wild-type peptides were first predicted based on the anchor residues (FIG. 1B) and their binding affinities to HLA-A2.1 molecules were measured by the T2-binding assay.
In the case of B1, the binding result is “no binding”. For the molecule B2, the binding result is on record as “no binding”.

Consider B3, for which the binding result is reported as “no binding”.

In the next assay the target is T1, HLA-A2.1 molecules on TAP-deficient T2 …. Put plainly: T2 binding assay, flow cytometry.
Experimental: as §1
For B4, the binding result is listed as “binds”.

Turning to B5, the binding result was “binds”.

For the molecule B6, the binding result was “binds”. As for B7, the binding result is listed as “binds”.

B8: the binding result is recorded as “binds”.

For another assay the target is unchanged. Briefly: T2 binding assay, flow cytometry; reference TARP-29-37.
Experimental: as §1, §2
For B9, the “fold higher binding affinity than TARP-29-37” value is approximately 10 fold.

Source of the values: patent US20060140967A1 (US Dept. of Health and Human Services, published 2006).
